Results on 12 molecules are retold here after patent US20140255408A1 (Janssen / Centocor, published 2014).

Experiment [1] concerns the target T1, human EGFR on cells (human, UniProt P00533 25-1210).
T1 construct: Wild type EGFR on A431, NCI-H292, NCI-H322, NCI-H441 and SNU-5 cells; in U-2 OS cells a beta-galactosidase fragment was fused to its C-terminus; also called epidermal growth factor receptor; HER1
In words: A431 cell EGF competition assay, competitor biotinylated EGF.

For experiment [2], the target named is T1, human EGFR on cells. In words: A431 cell binding assay, anti-penta-His-Alexa488 detection.
The target in experiment [3] is T1, human EGFR on cells. In words: cell-based or functional assay.
In experiment [4] the target is T2, recombinant human extracellular domain of EGFR fused to an IgG1 Fc (human, UniProt P00533 25-645).
T2 construct: Bought from R&D Systems; The residues are stated for the panning reagent; also called EGFR-Fc; EGF R-Fc; not shown: IgG1 Fc
In words: SPR (ProteOn), EGFR-Fc captured on anti-human Fc IgG, FN3 domain as analyte. As for the experimental part: Select EGFR-binding FN3 domains were screened to identify those with slow off-rates (koff) in binding to EGFR-Fc on a ProteOn XPR-36 instrument (Bio-Rad) to facilitate selection of high affinity binders. Goat anti-human Fc IgG (R&D systems), at a concentration of 5 μg/mL, was directly immobilized via amine coupling (at pH 5.0) on all 6 ligand channels in horizontal orientation on the chip with a flow rate of 30 μL/min in PBS containing 0.005% Tween-20. The immobilization densities averaged about 1500 Response Units (RU) with less than 5% variation among different channels. EGFR-Fc was captured on the anti-human Fc IgG surface to a density around 600 RU in vertical ligand orientation. All tested FN3 domains were normalized to a concentration of […] and tested for their binding in horizontal orientation. All 6 analyte channels were used for the FN3 domains to maximize screening throughput. The dissociation phase was monitored for 10 minutes at a flow rate of 100 μL/min. The inter-spot binding signals were used as references to monitor non-specific binding between analytes and the immobilized IgG surface, and were subtracted from all binding responses. The processed binding data were locally fit to a 1:1 simple Langmuir binding model to extract the koff for each FN3 domain binding to captured EGFR-Fc.
Binding affinity of selected EGFR-binding FN3 domains to recombinant EGFR extracellular domain was further characterized by surface Plasmon resonance methods using a Proteon Instrument (BioRad). The assay set-up (chip preparation, EGFR-Fc capture) was similar to that described above for off-rate analysis. Selected EGFR binding FN3 domains were tested at 1 μM concentration in 3-fold dilution series in the horizontal orientation. A buffer sample was also injected to monitor the baseline stability.

The target in experiment [5] is T3, human c-Met on cells (human, UniProt P08581 25-1390). In words: cell-based or functional assay.
The target of experiment [6] is T3, human c-Met on cells. In words: cell-based or functional assay. The source holds these as a separate data set.
Experiment [7] addresses T3, human c-Met on cells. In words: H441 cell binding assay, anti-His detection. As for the experimental part:
Purified FN3 domains (50 μL/well; 0 to 1000 nM) were added to the cells for 1 hour at 4° C. in duplicate plates. […] Cells were incubated with biotinylated-anti HIS antibody (diluted 1:160 in FACS stain buffer, 50 μL/well, R&D Systems, cat #BAM050) for 30 minutes at 4° C. […] Cells were washed three times with FACS stain buffer (150 μL/well) and left in FACS stain buffer (50 μL/well).

The target of experiment [8] is T4, Recombinant human c-Met Fc chimera (human, UniProt P08581 16-932).
T4 construct: not shown: Fc part
In words: SPR (ProteOn), c-Met-Fc captured on anti-human Fc IgG, FN3 domain as analyte.

The target in experiment [9] is T4, Recombinant human c-Met Fc chimera. In words: HGF competition assay on coated c-Met-Fc, competitor biotinylated HGF.
Experiment [10] has as its target T1, human EGFR on cells. In words: cell-based or functional assay. The source holds these as a separate data set.
Experiment [11] addresses T3, human c-Met on cells. In words: cell-based or functional assay. The source holds these as a separate data set.
Experiment [12] concerns the target T4, Recombinant human c-Met Fc chimera. In words: SPR (ProteOn), protocol of Example 3, recombinant c-Met extracellular domain.
Experiment [13] concerns the target T2, recombinant human extracellular domain …. In words: SPR (ProteOn), protocol of Example 3, recombinant EGFR extracellular domain. As for the experimental part: All 6 analyte channels were used for the FN3 domains to maximize screening throughput. The dissociation phase was monitored for 10 minutes at a flow rate of 100 μL/min. The inter-spot binding signals were used as references to monitor non-specific binding between analytes and the immobilized IgG surface, and were subtracted from all binding responses. The processed binding data were locally fit to a 1:1 simple Langmuir binding model to extract the koff for each FN3 domain binding to captured EGFR-Fc.
Binding affinity of selected EGFR-binding FN3 domains to recombinant EGFR extracellular domain was further characterized by surface Plasmon resonance methods using a Proteon Instrument (BioRad). The assay set-up (chip preparation, EGFR-Fc capture) was similar to that described above for off-rate analysis. Selected EGFR binding FN3 domains were tested at 1 μM concentration in 3-fold dilution series in the horizontal orientation. A buffer sample was also injected to monitor the baseline stability. […] Two sets of reference data were subtracted from the response data: 1) the inter-spot signals to correct for the non-specific interactions between the EGFR-binding FN3 domain and the immobilized IgG surface; 2) the buffer channel signals to correct for baseline drifting due to the dissociation of captured EGFR-Fc surface over time. The processed binding data at all concentrations for each FN3 domain were globally fit to a 1:1 simple Langmuir binding model to extract estimates of the kinetic (kₘ, koff) and affinity (KD) constants.

Like-named read-outs stand apart in the source and are kept apart here.

B1: P53A1R5-17 (designed binder, not shown: small tags and cut ends)
chain: LPAPKNLVVSEVTEDSLRLSWADPHGFYDSFLIQYQESEKVGEAINLTVPGSERSYDLTGLKPGTEYTVSIYGVHNVYKDTNMRGLPLSAEFTT
A word on the IC50: it is the concentration at which inhibition is half-maximal. As usually defined, the EC50 is the concentration needed to bring the measured effect to its halfway point. A high value points to weaker potency. The Kd is a measure of binding affinity in units of concentration. In the case of B1, in experiment [1], the IC50 came to 9.8 nM. This molecule also displayed an EC50 in experiment [2] of 4 nM. Besides, in [3], the “NCI-H292 Growth IC50” value came out at 86 nM, the “NCI-H322 Growth IC50” value was 65 nM and the “Phospho-EGFR IC50 (A431 cells)” value is above 2500 nM. Further, in experiment [4], the Kd worked out at 1.89 nM.

B2: P54AR4-83 (designed binder, not shown: small tags and cut ends)
chain: LPAPKNLVVSEVTEDSLRLSWDDPWAFYESFLIQYQESEKVGEAINLTVPGSERSYDLTGLKPGTEYTVSIYGVHNVYKDTNMRGLPLSAEFTT
For B2, the half-inhibitory concentration (IC50) in [1] turned out to be 1.8 nM. In addition, the EC50 in [2] is 2.2 nM. In addition, in experiment [3], the “NCI-H292 Growth IC50” value stood at 5.9 nM, the “NCI-H322 Growth IC50” value was 9.2 nM and the “Phospho-EGFR IC50 (A431 cells)” value was found to be 18 nM. The Kd in experiment [4] turned out to be 0.255 nM.

B3: P54AR4-73 (designed binder, not shown: small tags and cut ends)
chain: LPAPKNLVVSEVTEDSLRLSWTWPYADLDSFLIQYQESEKVGEAINLTVPGSERSYDLTGLKPGTEYTVSIYGVHNVYKDTNMRGLPLSAEFTT
Regarding B3, the IC50 in [1] turned out to be 4.6 nM. A half-maximal effect in experiment [2] (EC50) was put at 9.4 nM. In [3], the “NCI-H292 Growth IC50” value was found to be 83 nM, the “NCI-H322 Growth IC50” value is 73 nM and the “Phospho-EGFR IC50 (A431 cells)” value was 141 nM. Further, the dissociation constant (Kd) in [4] amounted to 0.197 nM.

B4: P54AR4-74 (designed binder, not shown: small tags and cut ends)
chain: LPAPKNLVVSEVTEDSLRLSWGYNGDHFDSFLIQYQESEKVGEAINLTVPGSERSYDLTGLKPGTEYTVSIYGVHNVYKDTNMRGLPLSAEFTT
Molecule B4 gave an EC50 in experiment [2] of 77 nM.

B5: P54AR4-17 (designed binder, not shown: small tags and cut ends)
chain: LPAPKNLVVSEVTEDSLRLSWTYDRDGYDSFLIQYQESEKVGEAINLTVPGSERSYDLTGLKPGTEYTVSIYGVHNVYKDTNMRGLPLSAEFTT
The molecule B5 registered an IC50 in experiment [1] of 21 nM. This molecule also returned an EC50 in experiment [2] of 16 nM. The “Phospho-EGFR IC50 (A431 cells)” value in [3] came to 184 nM. In experiment [4], the dissociation constant (Kd) worked out at 9.62 nM.

B6: P54AR4-48 (designed binder, not shown: small tags and cut ends)
chain: LPAPKNLVVSEVTEDSLRLSWDDPRGFYESFLIQYQESEKVGEAINLTVPGSERSYDLTGLKPGTEYTVSIYGVHNVYKDTNMRGLPLSAEFTT
B6 yielded a concentration for half-maximal inhibition (IC50) in experiment [1] of 9.8 nM. The molecule further registered an EC50 in experiment [2] of 12 nM. Besides, the “Phospho-EGFR IC50 (A431 cells)” value in experiment [3] worked out at 170 nM. Moreover, the dissociation constant Kd in experiment [4] was determined as 7.78 nM.

B7: P114AR5P74-A5 (designed binder, not shown: small tags and cut ends)
chain: LPAPKNLVVSRVTEDSARLSWTAPDAAFDSFWIRYDEVVVGGEAIVLTVPGSERSYDLTGLKPGTEYYVNILGVKGGSISVPLSAIFTT
On to B7, for which, in experiment [5], the “Inhibition of Proliferation of U87-MG cells (IC50)” value turned out to be 464 nM and the “pMet inhibition in H441 cells (IC50)” value was 1.08 µM. For the same molecule, in [6], the “inhibition of c-Met phosphorylation in HGF-stimulated NCI-H292 cells (IC50)” value worked out at 610 nM. In experiment [7], the EC50 was 18.7 nM. In addition, the equilibrium dissociation constant (Kd) in experiment [8] was 10.1 nM. The IC50 in [9] came to 5.2 nM.

B8: ECB106 (designed binder)
chain: MLPAPKNLVVSEVTEDSARLSWDDPHAFYESFLIQYQESEKVGEAIVLTVPGSERSYDLTGLKPGTEYTVSIYGVHNVYKDTNIRGLPLSAIFTTAPAPAPAPAPLPAPKNLVVSRVTEDSARLSWTAPDAAFDSFWIRYFEFLGSGEAIVLTVPGSERSYDLTGLKPGTEYVVNILGVKGGKISPPLSAIFTT
notes: not shown: C-terminal poly-histidine tag
As to B8, the “H292 pEGFR inhibition in H292 cells (IC50)” value (“H292 pEGFR inhibition” below) in experiment [10] worked out at 367 nM. Also, the “pMet inhibition in H441 cells (IC50)” value in experiment [11] was determined as 53.3 nM. The results for the equilibrium dissociation constant (Kd) in [12] and in experiment [13] were 5.1 nM and 16.7 nM, respectively.

B9: ECB107 (designed binder)
chain: MLPAPKNLVVSEVTEDSARLSWDDPHAFYESFLIQYQESEKVGEAIVLTVPGSERSYDLTGLKPGTEYTVSIYGVHNVYKDTNIRGLPLSAIFTTAPAPAPAPAPLPAPKNLVVSRVTEDSARLSWTAPDAAFDSFWIRYFEFVGSGEAIVLTVPGSERSYDLTGLKPGTEYVVNILGVKGGSISPPLSAIFTT
notes: as for B8
As for B9, the “H292 pEGFR inhibition” value in experiment [10] came out at 812 nM. For the same molecule, the “pMet inhibition in H441 cells (IC50)” value in experiment [11] came to 29.9 nM. The Kd in experiment [12] was determined as 9 nM; in experiment [13], 16.9 nM.

B10: ECB109 (designed binder)
chain: MLPAPKNLVVSEVTEDSARLSWDDPHAFYESFLIQYQESEKVGEAIVLTVPGSERSYDLTGLKPGTEYTVSIYGVHNVYKDTNIRGLPLSAIFTTAPAPAPAPAPLPAPKNLVVSRVTEDSARLSWTAPDAAFDSFWIRYFEFLGSGEAIVLTVPGSERSYDLTGLKPGTEYVVNILSVKGGSISPPLSAIFTT
notes: as for B8
B10: in experiment [10], the “H292 pEGFR inhibition” value turned out to be 432 nM. The “pMet inhibition in H441 cells (IC50)” value in experiment [11] stood at 26 nM. Further, the results for the Kd in experiment [12] and in experiment [13] were 2.1 nM and 17.3 nM, respectively.

B11: ECB108 (designed binder)
chain: MLPAPKNLVVSEVTEDSARLSWDDPHAFYESFLIQYQESEKVGEAIVLTVPGSERSYDLTGLKPGTEYTVSIYGVHNVYKDTNIRGLPLSAIFTTAPAPAPAPAPLPAPKNLVVSRVTEDSARLSWTAPDAAFDSFWIRYFEFVSKGDAIVLTVPGSERSYDLTGLKPGTEYVVNILGVKGGSISPPLSAIFTT
notes: as for B8
As to B11, in [10], the “H292 pEGFR inhibition” value came out at 814 nM. For the same molecule, the “pMet inhibition in H441 cells (IC50)” value in experiment [11] is 126 nM. Moreover, the dissociation constant (Kd) was determined as 25.5 nM in experiment [12] and 15.3 nM in experiment [13].

B12: P54AR4-81 (designed binder, not shown: small tags and cut ends)
chain: LPAPKNLVVSEVTEDSLRLSWDYDLGVYFDSFLIQYQESEKVGEAINLTVPGSERSYDLTGLKPGTEYTVSIYGVHNVYKDTNMRGLPLSAEFTT
B12 had an IC50 in experiment [1] of 121 nM. Further, it took 84 nM to reach a half-maximal effect in [2] (EC50).
